For one protein, Km results are on record in ChEMBL document CHEMBL1649076, “Discovery of 5-chloro-N2-[(1S)-1-(5-fluoropyrimidin-2-yl)ethyl]-N4-(5-methyl-1H-pyrazol-3-yl)pyrimidine-2,4-diamine (AZD1480) as a novel inhibitor of the Jak/Stat pathway” (J Med Chem, 2011).

Substrate in this data set: Cc1cc(Nc2nc(N[C@H](C)c3ncc(F)cn3)ncc2Cl)n[nH]1

Description: Inhibition of JAK2 using Km ATP concentration

B1: Tyrosine-protein kinase JAK2 (Homo sapiens), O60674 (protein)
chain: MGMACLTMTEMEGTSTSSIYQNGDISGNANSMKQIDPVLQVYLYHSLGKSEADYLTFPSGEYVAEEICIAASKACGITPVYHNMFALMSETERIWYPPNHVFHIDESTRHNVLYRIRFYFPRWYCSGSNRAYRHGISRGAEAPLLDDFVMSYLFAQWRHDFVHGWIKVPVTHETQEECLGMAVLDMMRIAKENDQTPLAIYNSISYKTFLPKCIRAKIQDYHILTRKRIRYRFRRFIQQFSQCKATARNLKLKYLINLETLQSAFYTEKFEVKEPGSGPSGEEIFATIIITGNGGIQWSRGKHKESETLTEQDLQLYCDFPNIIDVSIKQANQEGSNESRVVTIHKQDGKNLEIELSSLREALSFVSLIDGYYRLTADAHHYLCKEVAPPAVLENIQSNCHGPISMDFAISKLKKAGNQTGLYVLRCSPKDFNKYFLTFAVERENVIEYKHCLITKNENEEYNLSGTKKNFSSLKDLLNCYQMETVRSDNIIFQFTKCCPPKPKDKSNLLVFRTNGVSDVPTSPTLQRPTHMNQMVFHKIRNEDLIFNESLGQGTFTKIFKGVRREVGDYGQLHETEVLLKVLDKAHRNYSESFFEAASMMSKLSHKHLVLNYGVCVCGDENILVQEFVKFGSLDTYLKKNKNCINILWKLEVAKQLAWAMHFLEENTLIHGNVCAKNILLIREEDRKTGNPPFIKLSDPGISITVLPKDILQERIPWVPPECIENPKNLNLATDKWSFGTTLWEICSGGDKPLSALDSQRKLQFYEDRHQLPAPKWAELANLINNCMDYEPDFRPSFRAIIRDLNSLFTPDYELLTENDMLPNMRIGALGFSGAFEDRDPTQFEERHLKFLQQLGKGNFGSVEMCRYDPLQDNTGEVVAVKKLQHSTEEHLRDFEREIEILKSLQHDNIVKYKGVCYSAGRRNLKLIMEYLPYGSLRDYLQKHKERIDHIKLLQYTSQICKGMEYLGTKRYIHRDLATRNILVENENRVKIGDFGLTKVLPQDKEYYKVKEPGESPIFWYAPESLTESKFSVASDVWSFGVVLYELFTYIEKSKSPPAEFMRMIGNDKQGQMIVFHLIELLKNNGRLPRPDGCPDEIYMIMTECWNNNVNQRPSFRDLALRVDQIRDNMAG
As for B1, the Michaelis-Menten constant (Km) (commonly the concentration of substrate that gives half-maximal velocity) turned out to be 0.031 µM.
